For the experiment, the target named is T1, TRAF6 (TNFR-associated factor 6), endogenous (mouse (endogenous in mouse SMCs), UniProt P70196 1-530).
T1 construct: TRAF6, E3 ubiquitin ligase, endogenously expressed in mouse aortic smooth muscle cells; source: endogenous, mouse SMC lysate
T1 sequence (looked up): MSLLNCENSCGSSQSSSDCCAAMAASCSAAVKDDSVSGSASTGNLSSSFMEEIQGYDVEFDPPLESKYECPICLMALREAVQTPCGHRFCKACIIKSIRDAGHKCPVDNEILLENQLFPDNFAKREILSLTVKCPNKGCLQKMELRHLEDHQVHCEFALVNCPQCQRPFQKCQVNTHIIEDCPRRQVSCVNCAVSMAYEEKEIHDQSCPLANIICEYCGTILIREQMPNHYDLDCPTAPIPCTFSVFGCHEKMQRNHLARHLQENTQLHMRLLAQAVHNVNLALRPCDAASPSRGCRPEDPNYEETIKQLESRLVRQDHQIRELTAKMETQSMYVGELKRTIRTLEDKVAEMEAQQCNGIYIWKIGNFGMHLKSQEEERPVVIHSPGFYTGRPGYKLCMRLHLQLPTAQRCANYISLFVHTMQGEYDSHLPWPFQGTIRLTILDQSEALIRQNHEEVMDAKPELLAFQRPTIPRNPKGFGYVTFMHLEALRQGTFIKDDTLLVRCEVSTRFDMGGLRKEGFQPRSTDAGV
Kind of experiment: co-IP; endogenous TRAF6 immunoprecipitated with anti-TRAF6(D-10) agarose overnight at 4 °C from lysates of mouse SMCs transduced with HA-USP20, serum starved 1 h and stimulated with IL-1β (1 ng/ml, 20 min); lysis buffer 50 mM Hepes pH 7.5, 2 mM EDTA, 250 mM NaCl, 10% glycerol, 0.5% Nonidet P-40; immunoblot for HA. The settings on record: partners not purified.

B1: HA-tagged USP20-S334A (mouse) (enzyme, UniProt Q8C6M1 1-916, looked up)
chain: MGDARDLCPHLDCIGEVTKEDLLLKSKGTCQSCGVAGPNLWACLQVTCPYVGCGESFADHSSIHAQVKKHNLTVNLTTFRVWCYACEREVFLEQRLAVHLASSSARLSEQDSPPPSHPLKAVPIAVADEGESESEDDDLKPRGLTGMKNLGNSCYMNAALQALSNCPPLTQFFLECGGLVRTDKKPALCKSYQKLISEVWHKKRPSYVVPTSLSHGIKLVNPMFRGYAQQDTQEFLRCLMDQLHEELKEPMVAAVAALTDARDSDSSDTDERRDGDRSPSEDEFLSCDSSSDRGEGDGQGRGGGSSKAEMELLISDEAGRAISEKERMKDRKFAWGQQRTNSEQVDEDADVDTAMASLDEQSREAQPPSPRSTSPCQTPEPDNEAHIRSSSRPCSPVHHHHEGHSKLSSSPPRASPVRMGPSYVLKKAQVPSTGGRRRKEQSYRSVISDVFNGSVLSLVQCLTCDRVSTTVETFQDLSLPIPGKEDLAKLHSAIYQNVPAKPGACGDSYSSQGWLAFIVEYIRRFVVSCTPSWFWGPVVTLEDCLAAFFAADELKGDNMYSCERCKKLRNGVKYCKVLCLPEILCVHLKRFRHEVMYSFKVSSHVSFPLEGLDLRPFLAKECTSQVTTYDLLSVICHHGTAGSGHYIAYCQNVINGQWYEFDDQYVTEVHETVVQNVEAYVLFYRKSSEEAMRERQQVVSLAAMREPSLLRFYVSREWLNKFNTFAEPGPITNHTFLCSHGGIPPNKYHYIDDLVVILPQSVWEHLYSRFGGGPAVNHLYVCSICQVEIEALAKRRRVEIDTFIKLNKAFQAEESPAVIYCISMHWFREWEAFVKGKDSEPPGPIDNSRIAQVKGSGHIQLKQGADCGQISEETWTYLSSLYGGGPEIAIRQSVAQLPDPESLHGEQKIEAETRAL
notes: Mimics unphosphorylated USP20; source: mouse SMCs, transduced with recombinant adenovirus, in protein extract/lysate; not shown: HA, N-terminal, kept
In the case of B1, the “fold of USP20-WT in TRAF6 immunoprecipitates” value was approximately 2.2 fold.

The record behind these values is article PMC10362797, “Phosphorylation of USP20 on Ser334 by IRAK1 promotes IL-1β-evoked signaling in vascular smooth muscle cells and vascular inflammation” (The Journal of Biological Chemistry, 2023).
